The experiment has as its target OPTN Δ1-394 in pCMV-BD (mammalian two-hybrid fusion) (UniProt Q96CV9). Kind of experiment: mammalian two-hybrid (luciferase reporter). Details: unit not given here. As to conditions: HEK293 cells; 48 h after transfection; n = 3; parent: est. 6.5; read off a plot.
Chain of UniProt Q96CV9 (Q96CV9 395-577, stated change not applied): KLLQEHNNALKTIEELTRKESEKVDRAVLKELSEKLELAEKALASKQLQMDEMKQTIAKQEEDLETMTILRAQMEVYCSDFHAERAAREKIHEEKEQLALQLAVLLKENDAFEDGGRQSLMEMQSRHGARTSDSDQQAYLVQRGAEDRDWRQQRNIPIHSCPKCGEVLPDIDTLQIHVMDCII
As to “E3-14.7K wild type in pCMV-AD (mammalian two-hybrid fusion) E27D; R28Y; E29K; R30D; L31E”, the response was 4.5. On to “E3-14.7K wild type in pCMV-AD (mammalian two-hybrid fusion) H42D; Q43Y; C44K; K45D; R46E”, for which the response is 0.1.

Take “E3-14.7K wild type in pCMV-AD (mammalian two-hybrid fusion) H102D; F103Y; P104K; Y105D; Q106E”: the response was 11.

Turning to “E3-14.7K wild type in pCMV-AD (mammalian two-hybrid fusion) I12D; N13Y; T14K; E15D; Q16E”, the response worked out at 4.6. To “E3-14.7K wild type in pCMV-AD (mammalian two-hybrid fusion) L7D; E8Y; L9K; G11E” belongs 6. To “E3-14.7K wild type in pCMV-AD (mammalian two-hybrid fusion) M38Y; V39K; N40D; L41E” belongs 2.2; to “E3-14.7K wild type in pCMV-AD (mammalian two-hybrid fusion) M82D; V83Y; G84K; E85D; K86E”, 0.2; to “E3-14.7K wild type in pCMV-AD (mammalian two-hybrid fusion) P87D; I88Y; T89K; V90D; T91E”, 0.6.

For “E3-14.7K wild type in pCMV-AD (mammalian two-hybrid fusion) R17D; L18Y; L19K; E20D; R21E”, the response was 2.8. With “E3-14.7K wild type in pCMV-AD (mammalian two-hybrid fusion) R22D; K23Y; A24K; A25D; S26E” the figure was 2.9; with “E3-14.7K wild type in pCMV-AD (mammalian two-hybrid fusion) T2D; E3Y; S4K; L5D; D6E”, 5.1; with “E3-14.7K wild type in pCMV-AD (mammalian two-hybrid fusion) T62D; T63Y; T64K; G65D; N66E”, 0.5.

The values above are taken from publication PMC3366936.
